Source: the DeepSol protein solubility set

Test: soluble on expression in E. coli; label from the status in PepcDB or PDB records

| Sequence | soluble on expression in E. coli |
| --- | --- |
| MSEPPKKPFACAICRNKSSGCHYGVLSCDACKMFFKRTYLMEKYYTCRRQESCYNMDGGNRKCKACRFKKCLEVGMNPELFSRSESQIISTNIPTQLITQDHRNAEFLQKLKILDKTRHEVFKIIDTYENPSFVDLVRQESRLSCYLRPKNISWENTERKLKPWGSLGMLLAVETIKSLDFYPKLLLSDRILLLETVTLKSFHLSVAFDSFSQKKEKILAPDGSEMFPDSLNKMDFCKDLIMRLLTTPVKPLIAMKLTETEYLLLGIIVICNPEIDGLSPSGKAIITAFLQKTINVLLQFCLINNPRSAPSRLLEIISINQILNRQFHASYKLFDALRKQWDPTMSFQKVLVESCKTRGYDLS | not soluble |
| MSLESIKVVIVGGGQAGIAMGYYLVKEKVPFMILDANEQVGDSWRNRYDSLVLFTPRTYSQLPGFPMDGAPNGFPTKDEMASYLQQYANHFNLPMRHHTKVDRVTRQQNGRFHLKTTNGWIEAEKVVIATGAFQKPYLPPVLDSANNEMSQVHSSAYRNPAQIPGKSVLVVGGGNSGAQIAVELAKERNVTMAISHPFRFLPLKLLNKSMFSWLEWGGLLYAGIDTTRGRWFKKQKDPIFGKELKSLIKKGQIHLKPRVMNVQGKEVEFADHSRLSFDRIIWSTGFSPSYEWIDIDGVIATNGWPIHNRGITNIRGLYFLGLPWQYQRGSALVCGVGRDAEYLVPFIKHGDKEGHHHHHH | soluble |
| MIRAFLVVALASVAVFSAPIPEVPQNFDDIPAEYKGLIPAEVAEHLKAITAEEKAALKELAQNHKEYKTEEEFKAALKEKSPSLYEKAGKLEALLTAKFEKLDATAQALVKKIIAKGRELHQQYLAGDKPTLDSLKELAKGYIAEYKALSDDAKATITAEFPILTGFFQNEKIQAIVGQYVN | not soluble |
| MHRSFPRLVRSQGNLLKGMFGKSGEKEAVKQLTLEEQESLRKTLPSIRARESTQVTASADSVTEFDDDLLTMSRIDTDAIRARGFLKYTQNYVPGVDVKNQVLEAASSCLRSAGVKSENVDQYKFVEGDNSVKFELLNRLGKSIEHWPTNGKLLHLETVADVVEFYQTPVKNVTKYTEMARDENKPKNVSIMEHAARFHPEDTHMYHGGITAFPGSGGEVLSLRQKRLLRQFQPKKEWFDYDDQTFDYTRPDKNMPWDPEVANQMDKYTDKRYNLKTKQFTRIRQ | not soluble |
| MKTSPRSNRLHIALFGKRNSGKSSLINALTNQNAALVSDIAGTTTDPVYQPMEIHGIGPCVFIDTAGFDDEGELGSLRIERTLQAADKADIALMVCCDTELSEEQRWIELLKERNIPYLLVLNKADLLEKPDEVADKLEQQTGQHPLIVSAKEKTGIDSIRQSILHRLPELNEQPDIVGDLANEGDVVLLVMPQDIQAPKGRLILPQVQTLRELLDKKCITLSCTTDQLDNALKALSVPPSLIITDSQVFRTVYEKKPPQSRLTSFSVLFARYKGDIDYYTEGAYIIDQLTENSRVLIAEACTHAPLSEDIGRVKLPRMLRKRIGEKLHIDIVSGNDFPKDLNCYDLIIHCGACMFNRKHVLNRIVKAKAQGVPMTNYGIVIAYINGIPFH | soluble |
| MIERRKIAVIGSGQIGGNIAYIVGKDNLADVVLFDIAEGIPQGKALDITHSMVMFGSTSKVIGTNDYADISGSDVVIITASIPGRPKDDRSELLFGNARILDSVAEGVKKYCPNAFVICITNPLDVMVSHFQKVSGLPHNKVCGMAGVLDSSRFRTFIAQHFGVNASDVSANVIGGHGDGMVPATSSVSVGGVPLSSFIKQGLITQEQIDEIVCHTRIAWKEVADNLKTGTAYFAPAAAAVKMAEAYLKDKKAVVPCSAFCSNHYGVKGIYMGVPTIIGKNGVEDILELDLTPLEQKLLGESINEVNTISKVLDNAPAAGA | soluble |
| MLKRLGIVGFGASAIGFINGLIESGKVKDYRITVLERGKDYSHNTISGVRMDGKIFISHGMGGEIYIPLEIQAKTVEFYLKFSGYTPTVDKRVGIVNYLKSFERDGRKIEFGESFSDEEIYKRFYHHGFEPVKSYFFHLGTDILKETNKNIYEYFSSFENIEFLFGTTVEDVEFGPPHRVHTNRGDFEFDELVIAVGRSGHRLMERLKEKYPQLVRPNQFVDIGVRYELPNHVMDPFSDMYEVKVRYRTKTGYICRIFCQNPAGKVTLEKYEDFTTVNGYSDSLHKTENTNFAILVTTRFTEPFKDPTGYGVNLAKLANILAGDKEKVILQTYGDFKEFRRTKRLGRVHPTLDSESYILGDANLVFPSKIRESLVDFVENLEKVIPGASYFDNLLYAVEVKFYTNKFLNDIVEGLHVVGDCSGWTRSIQYATSMGYMRAVGMKIQSLLEHHHHHH | not soluble |
| MGSDKIHHHHHHMDTLIRRYKRLLTATSTTYIRSLMDTINWDNRLIAIRGARGVGKTTLMLQYLKLHYANDSQSALYTSLDSLYFTQHTLSELAEQFYLKGGKCLFLDEVHKYPSWSKEIKNIYDEFPELKIVFTGSSLLQLLNAEADLSRRCISYNMQGLSYREYLKLFHQIHIRPYTLEEILESSDGICNEVNSQCRPLAHFEDYLKHGYYPFYLEGNAEYYTRIENITNLILEIELPQQCGVDISNVRKLKSLLGILSSEVPFMVDITKLSALAELSRTTILAYLQYLDRAKLIHLLYSDNDSIKKLQKPDKIYMENTNLLYALTFKDVNKGTLREVFMVNQLSYLHRVEYCTRSADYTIDSKYTIEVGGKSKDGKQIAGSKKAFIAADDIEYSAGNKIPLWAFGFLY | not soluble |
| GPGSMEGPFLSRSIQYVERWLAEIVATKGTRAAATGSSEKAVAQKRGKATATAAAETGATSMSKCRFVVGRVNSVRPHPESQKLYIEEIDLGEEGGKCRTILSGLQEYVKQEDFLNRLVLVIANLEPRKIGGIPSEGMVLCASCNDEGSRSVVLLDVPEGTPVGERILFEGHEGPYEPVLKKKLAKHFEEVAAELRTNDKGEVVWRDMPFRTSCGIITASIPNGSVS | not soluble |
| MGSDKIHHHHHHMRFRERRFYMFYGKLQGENGDRFRAALQTMQELFGSVYASDNLIGLQRAGGFREDKKFVETLRRNAQTQQELSIAWRLHTLLWAAQNVMHLPGDFVECGVWKGFCFAFLTDYLDFAKSDKTLYLYDTYQGIPEAMNSEKRSNQVYEKDIAQDPNAILKVVQQRFANVPNARIVQGMVPDSFAEACPERIALLHIDMNSAASEIAALEALFDKVVPGGMIVFDDYGWTGYAAQRHAENAFMAARGHTVLEIPTGQGLVIKH | not soluble |
| IRRVLVPVDTSEERARNQAKYLTSLPNIPDSVEATVLFVFPHQDYKGAPSHDFEEVDAAVTAAEHLEAKGISVERVAVGGEVGRKILDAATDRDADSIVIGGRKRSGIANVLLGGTTQDIMLAAERPVTLTG | not soluble |
| VNDNQLAPVARPRSPLELLDTVPDSLLRRLKQYSGRLATEAVSAMQERLPFFADLEASQRASVALVVQTAVVNFVEWMHDPHSDVGYTAQAFELVPQDLTRRIALRQTVDMVRVTMEFFEEVVPLLARSEEQLTALTVGILKYSRDLAFTAATAYADAAEARGTWDSRMEASVVDAVVRGDTGPELLSRAAALNWDTTAPATVLVGTPAPGPNGSNSDGDSERASQDVRDTAARHGRAALTDVHGTWLVAIVSGQLSPTEKFLKDLLAAFADAPVVIGPTAPMLTAAHRSASEAISGMNAVAGWRGAPRPVLARELLPERALMGDASAIVALHTDVMRPLADAGPTLIETLDAYLDCGGAIEACARKLFVHPNTVRYRLKRITDFTGRDPTQPRDAYVLRVAATVGQLNYPTPH | not soluble |
| MISNQILQNTIEGLKGISRIDFCVLDTEGKALATTFEDTWNYESAVLSFVESPADSQVIQGCQFFKIFDEQQLEYVLLAGGESEDVYMLGKIAAFQVQSLLVAYKERFDKDNFIKNLLLDNLLLVDIYNRAKKLHIDTEAKRVIFIIETSHEKDSVALDNVRNLLGGKSRDFVTAVDEKNIIVVKELADKAGSRELEKMAKEMMEILRAESEDDKIHIAYGTVVNDIKEVSKSYKEAKLALDVGKIFFDEKDIVAYSTLGIGRLIYQLPIPLCKMFIKEIFEGKSPDEFDEETLTTINKFFENSLNVSETSRQLYIHRNTLVYRLDKLQKSTGLDLRVFEDAITFKIALMVVKYMKYMETLEY | not soluble |
| MGSDKIHHHHHHMKTLAQNIQEKLKASGLTQKELAERANISQVMVHKLISGKAKESSKLVAIAGVLGCTAEELMYGLEKHVPTSNAEWAGPMETWDSNTPLNDDEVEIPFYMEVELAAGHGIAEASEYHGPKLRFAKSTLRKSSVDPTNAACVRVSGNSMEPVLPSGSTVGVDTSQTDVIDGKMYAINHDGMLRVKTLYKLPGGGLRLRSYNIDEWPDERYEGEAIKQIKIIGKVFWYSVLM | not soluble |
| MGSDKIHHHHHHMGLSTSTKTFAERLEESKKDQFAKAAVAKAQDAQWEKRESARDELGNWQEWRDIAESIRQHTLKYLPHYLTEFSDNVAARGGHVFFAADAKEANDYVKRIVLEKNAKKIVKSKSMVTTEVDIDPMLVSLSDDMDILETDLAEFILQVADWDEPSHIVFPALHKNRDQIREIFAKKLGYEGDNNPVNLARCARDTMRKLFLKSEVGITGCNFAIANTGDINLSTNEGNADLTISIPKTQIVLMGMERIVPSIKEAEILDNMLARSAVGQKLTTYVTFAGQQADDESDGPEDFHVVIVDNGRSNAIGTAFEAVLQCIRCGACLNVCPVYRQIGGHAYGSIYPGPIGSVLSPVLGGYEQYGDLPYASTLCGACTETCPVKIPLHELLIEHRKVMEDDLSMHHDGSFVNFEMNTIGKGTSSPALFGMAINMAHTGLNMLPKAKEVSVEGSLFNYGAVRKAPALAKGWTDVRDLPIAPPHKEQFRQWYKKHKAGK | not soluble |
| QTITIKGQVLDEKKQPVSYASVVISTDSLSKKDISYAVTDEHGQFRIGQLSAIPDKRWIHVRSIGYLGFHKQISLRAVKSPLDITLTEDTKELEEVVVVARARDAYAKGDTIVFNSKNYTLGNERNLGDVVKKMPGMEVDQTGNISYQGKKIGKVLVDGQDILSSSSGVAMNTLPPDFANSIELLSNYTDGDIAHAFKAEEQLALNLKSNKKVALSGSFEGGGGLKDKFISKASLITVLPKISASTIINANNTGEAVFSIQDYMSNIIDFESIRSGASTQTSLSLSPEEQQLLLPPTNEHARTAGLANINISWTPHSSYKLRASTLFNKGKSEGAHTKTDTYTLPENYFTNISTGTADKETQLVSQYLSQKWIPSRFFSVSAKTKIDIRNHNADNIYANTFNDNHIHALEKPKNHFSGIKQDIEMKWLLSKGLLFGGGSFVFNKGKINSDIYTDVLLLPLPHINGNSIYPYFHEHIKKDMEKGFNAYVGGMYPVLNNIYLRGEFSMSMNWNELKMAYPTSINEETADLRVFRPYISLMKNKGVFRFNIGSYFSSYRQKTSPELLREKSLFYIEPHASIELVMSNQHRLMLSVSEAVSPSTIDYFSQQILAKGYNNLQLPSKLSNPFAKRFKGNLSYAYFSLFNRLSMYGNLSYIKDRDTHITVTTSKGLLISNFYQDGGWSNTLRTNAYLSKGIGTLPLDIKLSGKYTLSKHNLMRVDKEDELINKRVDAKLDLISRLYQSPVNFEIGVRFSRLDQKFTYSNIHSWNQE | not soluble |
| MGSDKIHHHHHHMKVIKFGGSSLASGIQLNKVFQLVAEDSERKIVVVSAPGKRFKDDTKVTDLLIDCAAKALLGEDTSELFEAVIARYAGIALDTGMDDAIITQIRADLQKTISSDKSDPDKFLDRMKASGEDNNAKLIAAYFKFKGLNANYVNPKDAGLFVTDEHASAQVLPESYDRLFALREREGIIVFPGFFGYTKDGEISTFSRSGSDITGAIVANGAQAELYENFTDVDAVYAVNPAIVKNPKKVLELTYREMRELSYAGFSVFHDEALIPAFHAGIPVHIKNTNNPDSCGTRVVHERENNNGPVVGIASDDGFCSIYISKYLMNREIGFGRKVLQILEDAGLNYEHMPSGIDDLTIIIRENQFGEDTERTIMTRLKEELNADQVIMQHGISLIMVVGEAMRHNVGITSRASKALSDAKVNIEMINQGSSEVSIMFGVKEEQENTAVRALYNEFFSEVLV | not soluble |
| SDLQTRFRPPGAEISIIGLSASLAELVPPSNIENAPQIPRGEDGFFERVGNATREMLVYVGSVVRFIKECVLVFKLGINRRKNVNWTTVSNIATRAGADAVP | not soluble |
